Measured values reported in publication PMC5039643, “Independent multimerization of Latent TGFβ Binding Protein-1 stabilized by cross-linking and enhanced by heparan sulfate” (Scientific Reports, 2016).
Blank lines part the entries; values can stand above or below the molecule they belong to.

How the values were obtained:
[1] = biological target: Latent TGFβ Binding Protein-1, short form (LTBP1S), full length; experiment: negative stain EM; LTBP1 oligomers imaged by negative stain EM; lengths measured with ImageJ (n = 100 from 32 images)
[2] = biological target: Latent TGFβ Binding Protein-1, short form (LTBP1S), full length; experiment: SEC-MALS; Superdex 200 or Superose 6; 0.5 ml at ~0.5 mg/ml; 10 mM Tris, 150 mM NaCl, 2 mM CaCl2, pH 7.4; self-association; NT2 monomer also stored overnight at 4 °C in 2 mM calcium and the dimer fraction rerun
[3] = biological target: the molecule itself; experiment: AUC; ~0.5 mg/ml; 10 mM Tris, 150 mM NaCl, 2 mM CaCl2, pH 7.4; self-association; NT1 also after 12 h pre-incubation with ~10x molar excess of low molecular weight heparin
[4] = biological target: the molecule itself; experiment: SEC-MALS; Superdex 200 or Superose 6; 0.5 ml at ~0.5 mg/ml; 10 mM Tris, 150 mM NaCl, 2 mM CaCl2, pH 7.4; self-association; NT2 monomer also stored overnight at 4 °C in 2 mM calcium and the dimer fraction rerun

stoichiometry N [1]: 4 to 5 | stoichiometry N [2]: 4 to 5
Molecule: Latent TGFβ Binding Protein-1, short form (LTBP1S), full length (natural protein)

B1: LTBP1 N-terminal construct NT1 (residues 21–488) (domain or fragment, UniProt Q14766-2 21-488, looked up)
chain: NHTGRIKVVFTPSICKVTCTKGSCQNSCEKGNTTTLISENGHAADTLTATNFRVVICHLPCMNGGQCSSRDKCQCPPNFTGKLCQIPVHGASVPKLYQHSQQPGKALGTHVIHSTHTLPLTVTSQQGVKVKFPPNIVNIHVKHPPEASVQIHQVSRIDGPTGQKTKEAQPGQSQVSYQGLPVQKTQTIHSTYSHQQVIPHVYPVAAKTQLGRCFQETIGSQCGKALPGLSKQEDCCGTVGTSWGFNKCQKCPKKPSYHGYNQMMECLPGYKRVNNTFCQDINECQLQGVCPNGECLNTMGSYRCTCKIGFGPDPTFSSCVPDPPVISEEKGPCYRLVSSGRQCMHPLSVHLTKQLCCCSVGKAWGPHCEKCPLPGTAAFKEICPGGMGYTVSGVHRRRPIHHHVGKGPVFVKPKNTQPVAKSTHPPPLPAKEEPVEALTFSREHGPGVAEPEVATAPPEKEIPSLDQE
notes: LTBP1S residues 21-488; also called NT1 region
stoichiometry N [3]: 2

B2: LTBP1 N-terminal construct NT2 (residues 21–630) (domain or fragment, UniProt Q14766-2 21-630, looked up)
chain: NHTGRIKVVFTPSICKVTCTKGSCQNSCEKGNTTTLISENGHAADTLTATNFRVVICHLPCMNGGQCSSRDKCQCPPNFTGKLCQIPVHGASVPKLYQHSQQPGKALGTHVIHSTHTLPLTVTSQQGVKVKFPPNIVNIHVKHPPEASVQIHQVSRIDGPTGQKTKEAQPGQSQVSYQGLPVQKTQTIHSTYSHQQVIPHVYPVAAKTQLGRCFQETIGSQCGKALPGLSKQEDCCGTVGTSWGFNKCQKCPKKPSYHGYNQMMECLPGYKRVNNTFCQDINECQLQGVCPNGECLNTMGSYRCTCKIGFGPDPTFSSCVPDPPVISEEKGPCYRLVSSGRQCMHPLSVHLTKQLCCCSVGKAWGPHCEKCPLPGTAAFKEICPGGMGYTVSGVHRRRPIHHHVGKGPVFVKPKNTQPVAKSTHPPPLPAKEEPVEALTFSREHGPGVAEPEVATAPPEKEIPSLDQEKTKLEPGQPQLSPGISTIHLHPQFPVVIEKTSPPVPVEVAPEASTSSASQVIAPTQVTEINECTVNPDICGAGHCINLPVRYTCICYEGYRFSEQQRKCVDIDECTQVQHLCSQGRCENTEGSFLCICPAGFMASEEGTNCI
notes: LTBP1S residues 21-630; also called NT2 region
stoichiometry N [4]: 2
